Laboratory results from US20240409645A1 (DUALYX, published 2024).

T1: human IL-2 receptor (IL-2Rα/IL-2Rβ/γc) (human, UniProt P01589 22-272; P14784 27-551; P31785 23-369)
T1 sequence 1: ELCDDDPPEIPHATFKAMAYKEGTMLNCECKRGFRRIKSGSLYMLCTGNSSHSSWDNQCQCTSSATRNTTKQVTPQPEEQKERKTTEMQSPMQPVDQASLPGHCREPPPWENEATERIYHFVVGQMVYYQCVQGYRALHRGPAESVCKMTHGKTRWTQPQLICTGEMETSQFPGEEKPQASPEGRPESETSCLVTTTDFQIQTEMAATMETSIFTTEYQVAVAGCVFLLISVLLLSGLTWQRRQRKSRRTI
T1 sequence 2: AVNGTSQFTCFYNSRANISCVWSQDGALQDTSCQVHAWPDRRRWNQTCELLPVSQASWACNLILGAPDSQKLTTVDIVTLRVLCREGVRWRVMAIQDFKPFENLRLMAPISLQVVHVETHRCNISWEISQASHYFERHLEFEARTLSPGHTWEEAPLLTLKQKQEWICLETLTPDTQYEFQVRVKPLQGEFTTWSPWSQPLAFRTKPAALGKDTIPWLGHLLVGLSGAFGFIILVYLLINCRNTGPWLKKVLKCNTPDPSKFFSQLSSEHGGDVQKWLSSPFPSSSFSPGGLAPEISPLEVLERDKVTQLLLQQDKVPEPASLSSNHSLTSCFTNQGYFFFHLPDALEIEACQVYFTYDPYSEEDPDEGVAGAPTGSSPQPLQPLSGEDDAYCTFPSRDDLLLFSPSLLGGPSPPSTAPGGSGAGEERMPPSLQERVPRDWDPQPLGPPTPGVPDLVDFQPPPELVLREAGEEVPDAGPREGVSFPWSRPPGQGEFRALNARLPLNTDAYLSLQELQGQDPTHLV
T1 sequence 3: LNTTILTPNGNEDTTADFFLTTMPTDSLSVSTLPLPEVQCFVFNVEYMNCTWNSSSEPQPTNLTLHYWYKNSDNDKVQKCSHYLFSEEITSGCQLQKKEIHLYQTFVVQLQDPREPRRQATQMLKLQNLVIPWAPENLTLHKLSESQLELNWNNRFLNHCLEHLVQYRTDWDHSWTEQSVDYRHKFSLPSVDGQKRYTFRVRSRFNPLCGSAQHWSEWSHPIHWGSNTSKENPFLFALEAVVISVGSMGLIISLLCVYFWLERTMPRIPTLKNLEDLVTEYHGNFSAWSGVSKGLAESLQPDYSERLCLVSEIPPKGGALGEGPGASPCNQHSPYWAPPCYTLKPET


Molecular target: T1, human IL-2 receptor (IL-2Rα/IL-2Rβ/γc)
Experiment: cell-based or functional assay

Binder | EC50 (nM) pSTAT5, NK, human PBMCs | EC50 (nM) pSTAT5, Treg, human PBMCs | Fold Max signal (% pSTAT5+) Treg/NK | Max signal (% pSTAT5+), NK | Max signal (% pSTAT5+), Treg | fold EC50 NK/Treg
DC00039 (other) chain 1: QVQLVESGGGLVQPGGSLRLSCATSGFTFRNNFMSWVRQAPGKGLEWVSTISYGGESTTYAESVKGRFTISRDNAKNTLYLQMNNLKPEDTAVYYCAKATSYDSIRSGSRGQGTQVTVSSDKTHTCPPCPAPEAAGGPSVFLFPPKPKDTLMISRTPEVTCVVVDVSHEDPEVKFNWYVDGVEVHNAKTKPREEQYNSTYRVVSVLTVLHQDWLNGKEYKCKVSNKALGAPIEKTISKAKGQPREPQVYTLPPSRDELTKNQVSLTCLVKGFYPSDIAVEWESNGQPENNYKTTPPVLDSDGSFLLYSKLTVDKSRWQQGNVFSCSVMHEALHNHYTQKSLSLSPGK chain 2: EVQLVESGGGLVQTGGSLRLSCAASGGTFSRDAMAWFRQVPGKEREFVALISWSGATTNYADSVKGRFAISRDNGKNTVYLQMNRLKPADTAIYYCAADRRPMGSRSYFEPTEYDDWGQGTQVTVSSGGGGSGGGGSGGGGSQVQLVESGGGLVQPGGSLRLSCATSGFTFRNNFMSWVRQAPGKGLEWVSTISYGGESTTYAESVKGRFTISRDNAKNTLYLQMNNLKPEDTAVYYCAKATSYDSIRSGSRGQGTQVTVSSGGGGSGGGGSGGGGSQVQLVESGGGLVQAGGSLTLSCAAPGRTFGTDVVGWFRQAPGKEREFVASISRSGDGIYYDDSVKGRFTISRNNAWNTVNLQMNSLKVEDTAVYYCAAGDGWSTYDYWGQGTQVTVSSGGGGSGGGGSGGGGSDKTHTCPPCPAPEAAGGPSVFLFPPKPKDTLMISRTPEVTCVVVDVSHEDPEVKFNWYVDGVEVHNAKTKPREEQYNSTYRVVSVLTVLHQDWLNGKEYKCKVSNKALGAPIEKTISKAKGQPREPQVYTLPPSRDELTKNQVSLTCLVKGFYPSDIAVEWESNGQPENNYKTTPPVLDSDGSFFLYSRLTVDKSRWQQGNVFSCSVMHEALHNHYTQKSLSLSPGK | 0.0315 nM | 0.761 pM | 11 fold | 4 % pSTAT5+ | 46 % pSTAT5+ | 41 fold
DC00040 (other) chain 1: QVQLVESGGGLVQPGGSLRLSCATSGFTFRNNFMSWVRQAPGKGLEWVSTISYGGESTTYAESVKGRFTISRDNAKNTLYLQMNNLKPEDTAVYYCAKATSYDSIRSGSRGQGTQVTVSSDKTHTCPPCPAPEAAGGPSVFLFPPKPKDTLMISRTPEVTCVVVDVSHEDPEVKFNWYVDGVEVHNAKTKPREEQYNSTYRVVSVLTVLHQDWLNGKEYKCKVSNKALGAPIEKTISKAKGQPREPQVYTLPPSRDELTKNQVSLTCLVKGFYPSDIAVEWESNGQPENNYKTTPPVLDSDGSFLLYSKLTVDKSRWQQGNVFSCSVMHEALHNHYTQKSLSLSPGK chain 2: EVQLVESGGGLVQTGGSLRLSCAASGGTFSRDAMAWFRQVPGKEREFVALISWSGATTNYADSVKGRFAISRDNGKNTVYLQMNRLKPADTAIYYCAADRRPMGSRSYFEPTEYDDWGQGTQVTVSSGGGGSGGGGSGGGGSQVQLVESGGGLVQAGGSLTLSCAAPGRTFGTDVVGWFRQAPGKEREFVASISRSGDGIYYDDSVKGRFTISRNNAWNTVNLQMNSLKVEDTAVYYCAAGDGWSTYDYWGQGTQVTVSSGGGGSGGGGSGGGGSDKTHTCPPCPAPEAAGGPSVFLFPPKPKDTLMISRTPEVTCVVVDVSHEDPEVKFNWYVDGVEVHNAKTKPREEQYNSTYRVVSVLTVLHQDWLNGKEYKCKVSNKALGAPIEKTISKAKGQPREPQVYTLPPSRDELTKNQVSLTCLVKGFYPSDIAVEWESNGQPENNYKTTPPVLDSDGSFFLYSRLTVDKSRWQQGNVFSCSVMHEALHNHYTQKSLSLSPGK | 0.701 nM | 0.0158 nM | 10 fold | 4 % pSTAT5+ | 43 % pSTAT5+ | 44 fold

Next, values leading:

EC50 (nM) pSTAT5, NK, human PBMCs | EC50 (nM) pSTAT5, Treg, human PBMCs | Fold Max signal (% pSTAT5+) Treg/NK | Max signal (% pSTAT5+), NK | Max signal (% pSTAT5+), Treg | fold EC50 NK/Treg | Binder
0.763 nM | 0.106 pM | 5 fold | 21 % pSTAT5+ | 94 % pSTAT5+ | 7210 fold | DC00042 (other) chain 1: QVQLVESGGGLVQPGGSLRLSCATSGFTFRNNFMSWVRQAPGKGLEWVSTISYGGESTTYAESVKGRFTISRDNAKNTLYLQMNNLKPEDTAVYYCAKATSYDSIRSGSRGQGTQVTVSSDKTHTCPPCPAPEAAGGPSVFLFPPKPKDTLMISRTPEVTCVVVDVSHEDPEVKFNWYVDGVEVHNAKTKPREEQYNSTYRVVSVLTVLHQDWLNGKEYKCKVSNKALGAPIEKTISKAKGQPREPQVYTLPPSRDELTKNQVSLTCLVKGFYPSDIAVEWESNGQPENNYKTTPPVLDSDGSFLLYSKLTVDKSRWQQGNVFSCSVMHEALHNHYTQKSLSLSPGK chain 2: QVQLVESGGGLVQAGGSLTLSCAAPGRTFGTDVVGWFRQAPGKEREFVASISRSGDGIYYDDSVKGRFTISRNNAWNTVNLQMNSLKVEDTAVYYCAAGDGWSTYDYWGQGTQVTVSSGGGGSGGGGSGGGGSEVQLVESGGGLVQTGGSLRLSCAASGGTFSRDAMAWFRQVPGKEREFVALISWSGATTNYADSVKGRFAISRDNGKNTVYLQMNRLKPADTAIYYCAADRRPMGSRSYFEPTEYDDWGQGTQVTVSSGGGGSGGGGSGGGGSDKTHTCPPCPAPEAAGGPSVFLFPPKPKDTLMISRTPEVTCVVVDVSHEDPEVKFNWYVDGVEVHNAKTKPREEQYNSTYRVVSVLTVLHQDWLNGKEYKCKVSNKALGAPIEKTISKAKGQPREPQVYTLPPSRDELTKNQVSLTCLVKGFYPSDIAVEWESNGQPENNYKTTPPVLDSDGSFFLYSRLTVDKSRWQQGNVFSCSVMHEALHNHYTQKSLSLSPGK
0.15 nM | < 0.1 pM | 5 fold | 17 % pSTAT5+ | 94 % pSTAT5+ | > 1500 fold | DC00041 (other) chain 1: QVQLVESGGGLVQPGGSLRLSCATSGFTFRNNFMSWVRQAPGKGLEWVSTISYGGESTTYAESVKGRFTISRDNAKNTLYLQMNNLKPEDTAVYYCAKATSYDSIRSGSRGQGTQVTVSSDKTHTCPPCPAPEAAGGPSVFLFPPKPKDTLMISRTPEVTCVVVDVSHEDPEVKFNWYVDGVEVHNAKTKPREEQYNSTYRVVSVLTVLHQDWLNGKEYKCKVSNKALGAPIEKTISKAKGQPREPQVYTLPPSRDELTKNQVSLTCLVKGFYPSDIAVEWESNGQPENNYKTTPPVLDSDGSFLLYSKLTVDKSRWQQGNVFSCSVMHEALHNHYTQKSLSLSPGK chain 2: QVQLVESGGGLVQPGGSLRLSCATSGFTFRNNFMSWVRQAPGKGLEWVSTISYGGESTTYAESVKGRFTISRDNAKNTLYLQMNNLKPEDTAVYYCAKATSYDSIRSGSRGQGTQVTVSSGGGGSGGGGSGGGGSQVQLVESGGGLVQAGGSLTLSCAAPGRTFGTDVVGWFRQAPGKEREFVASISRSGDGIYYDDSVKGRFTISRNNAWNTVNLQMNSLKVEDTAVYYCAAGDGWSTYDYWGQGTQVTVSSGGGGSGGGGSGGGGSEVQLVESGGGLVQTGGSLRLSCAASGGTFSRDAMAWFRQVPGKEREFVALISWSGATTNYADSVKGRFAISRDNGKNTVYLQMNRLKPADTAIYYCAADRRPMGSRSYFEPTEYDDWGQGTQVTVSSGGGGSGGGGSGGGGSDKTHTCPPCPAPEAAGGPSVFLFPPKPKDTLMISRTPEVTCVVVDVSHEDPEVKFNWYVDGVEVHNAKTKPREEQYNSTYRVVSVLTVLHQDWLNGKEYKCKVSNKALGAPIEKTISKAKGQPREPQVYTLPPSRDELTKNQVSLTCLVKGFYPSDIAVEWESNGQPENNYKTTPPVLDSDGSFFLYSRLTVDKSRWQQGNVFSCSVMHEALHNHYTQKSLSLSPGK
0.0538 nM | 0.497 pM | 7 fold | 11 % pSTAT5+ | 80 % pSTAT5+ | 108 fold | DC00070 (other) chain 1: EVQLVESGGGLVQTGGSLRLSCAASGGTFSRDAMAWFRQVPGKEREFVALISWSGATTNYADSVKGRFAISRDNGKNTVYLQMNRLKPADTAIYYCAADRRPMGSRSYFEPTEYDDWGQGTQVTVSSGGGGSGGGGSGGGGSQVQLVESGGGLVQPGGSLRLSCATSGFTFRNNFMSWVRQAPGKGLEWVSTISYGGESTTYAESVKGRFTISRDNAKNTLYLQMNNLKPEDTAVYYCAKATSYDSIRSGSRGQGTQVTVSSDKTHTCPPCPAPEAAGGPSVFLFPPKPKDTLMISRTPEVTCVVVDVSHEDPEVKFNWYVDGVEVHNAKTKPREEQYNSTYRVVSVLTVLHQDWLNGKEYKCKVSNKALGAPIEKTISKAKGQPREPQVYTLPPSRDELTKNQVSLTCLVKGFYPSDIAVEWESNGQPENNYKTTPPVLDSDGSFLLYSKLTVDKSRWQQGNVFSCSVMHEALHNHYTQKSLSLSPGK chain 2: QVQLVESGGGLVQAGGSLTLSCAAPGRTFGTDVVGWFRQAPGKEREFVASISRSGDGIYYDDSVKGRFTISRNNAWNTVNLQMNSLKVEDTAVYYCAAGDGWSTYDYWGQGTQVTVSSGGGGSGGGGSGGGGSQVQLVESGGGLVQPGGSLRLSCATSGFTFRNNFMSWVRQAPGKGLEWVSTISYGGESTTYAESVKGRFTISRDNAKNTLYLQMNNLKPEDTAVYYCAKATSYDSIRSGSRGQGTQVTVSSDKTHTCPPCPAPEAAGGPSVFLFPPKPKDTLMISRTPEVTCVVVDVSHEDPEVKFNWYVDGVEVHNAKTKPREEQYNSTYRVVSVLTVLHQDWLNGKEYKCKVSNKALGAPIEKTISKAKGQPREPQVYTLPPSRDELTKNQVSLTCLVKGFYPSDIAVEWESNGQPENNYKTTPPVLDSDGSFFLYSRLTVDKSRWQQGNVFSCSVMHEALHNHYTQKSLSLSPGK
